Test [1] has as its target human CD38 on cells (Daudi cells; CD38^+ Jurkat T cells) (human), P28907. Nature of the test: cell-based or functional assay.
In test [2] the target is recombinant human CD38 (Acrobio, ref CD8-H5224) (human), P28907. The test is described as follows: SPR, Biacore 3000, CM5 chip, recombinant human CD38. On the technique in general: Surface plasmon resonance follows binding to a sensor surface in real time, without labels.

Broadly, the Kd is a measure of binding affinity in units of concentration.

CMVKLKREKNPGDQNFVILEFC (modifications not checked) [β-sheet-like folded peptide … (SEQ ID NO: 10), free peptide] displayed an EC50, glucose uptake (2-NBDG fluorescence), human Daudi cells in test [1] of 0.002 nM. Moreover, the Kd in test [2] stood at 8.8 nM.

The values above are taken from patent US20230357354A1, “CD38-BINDING CD31 PEPTIDES AND USES THEREOF” (ENCEFA, priority 2020, published 2023).
